Like-named read-outs stand apart in the source and are kept apart here.
How the values were obtained:
[1] = test system: U87 cells (expressing IL13RA2); test: In vitro cytotoxicity of T cells from immunized HHD mice against U87 cells (Example 4); type: cell-based; conditions: CD3+ T cells of mice immunized with the peptide, 72 h co-culture with U87-MG
Procedure: Briefly, […] from mice immunized with IL13RA2-H or IL13RA2-B were used. These cells were obtained after sorting of splenocyte from immunized mice and were placed on top of U87 cells (expressing IL13RA2).
In more detail, CD3+ T cells were purified from splenocytes of HHD mice immunized with IL13RA2-H ([…], SEQ ID No 263) or IL13RA2-B ([…]). To this end, B6 β2m^ko HHD/DR3 mice were injected s.c. at tail base with 100 μL of an oil-based emulsion containing vaccination peptide plus helper peptide plus CFA (complete Freund's adjuvant), at day 0 and day 14. On d21, i.e. seven days after the boost injection, the animals were euthanized and the spleen was harvested. Splenocytes were prepared by mechanical disruption of the organ. CD3+ purification was performed using the mouse total T cells isolation kit from Miltenyi biotec using the recommended procedure. Efficient purification of cells and viability was validated by cytometry using appropriate marker for viability, CD8, CD4, CD3, and CD45. […]
72 hours after co-culture of U87-MG cells and CD3+ T cells, all cells from the wells were harvested and specific U87-MG cell death was evaluated after immunostaining of CD45 negative cells with DAPI and fluorescent annexin V followed by cytometry analysis.

HLA-A*0201 = HLA-A*0201 (Homo sapiens, UniProt P04439, D140Y/D185E/D98H/E176V/E277Q/G131W/G231S/I119V/I121R/I166T/I218V/L300P/L318F/N151K/N90K/P208A/P217A/Q86G/Q94H/R138H/R169H/T345S); conditions: for Mean fluorescence intensity: T2 cells

Concentration of peptide that induces 20% of HLA-A2 expression (HLA-A*0201; T2 cell line, HLA-A*0201, Example 13, protocol as in Example 3): 62.3 µM
Concentration that induces 20% of expression of the HLA-A*0201 (HLA-A*0201; T2 cells (Example 1)): 100 µM
Mean fluorescence intensity (HLA-A*0201; peptide at 0.1 μM (Example 1)): 7.46
Mean fluorescence intensity (HLA-A*0201; peptide at 1 μM (Example 1)): 9.41
Mean fluorescence intensity (HLA-A*0201; peptide at 10 μM (Example 1)): 11.61
Mean fluorescence intensity (HLA-A*0201; peptide at 100 μM (Example 1)): 18.64
Sequence: WLPFGFILI [IL13RA2-H, reference compound]
U87 cell lysis (in words) [1]: not
